According to IntAct's records for PubMed 26040717:

B1: Autophagy-related protein 8 (Saccharomyces cerevisiae), P38182 (parent)
chain: MKSTFKSEYPFEKRKAESERIADRFKNRIPVICEKAEKSDIPEIDKRKYLVPADLTVGQFVYVIRKRIMLPPEKAIFIFVNDTLPPTAALMSAIYQEHKDKDGFLYVTYSGENTFGR
partner: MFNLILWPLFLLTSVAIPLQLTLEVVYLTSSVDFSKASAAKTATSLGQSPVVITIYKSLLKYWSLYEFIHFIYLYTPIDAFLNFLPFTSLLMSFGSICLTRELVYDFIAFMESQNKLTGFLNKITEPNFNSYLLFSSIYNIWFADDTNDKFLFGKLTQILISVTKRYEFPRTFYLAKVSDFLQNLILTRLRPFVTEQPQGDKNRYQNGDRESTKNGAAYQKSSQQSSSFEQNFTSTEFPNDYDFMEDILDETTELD
B2: Autophagy-related protein 8 (Saccharomyces cerevisiae), P38182 (parent)
chain: B1 chain
partner: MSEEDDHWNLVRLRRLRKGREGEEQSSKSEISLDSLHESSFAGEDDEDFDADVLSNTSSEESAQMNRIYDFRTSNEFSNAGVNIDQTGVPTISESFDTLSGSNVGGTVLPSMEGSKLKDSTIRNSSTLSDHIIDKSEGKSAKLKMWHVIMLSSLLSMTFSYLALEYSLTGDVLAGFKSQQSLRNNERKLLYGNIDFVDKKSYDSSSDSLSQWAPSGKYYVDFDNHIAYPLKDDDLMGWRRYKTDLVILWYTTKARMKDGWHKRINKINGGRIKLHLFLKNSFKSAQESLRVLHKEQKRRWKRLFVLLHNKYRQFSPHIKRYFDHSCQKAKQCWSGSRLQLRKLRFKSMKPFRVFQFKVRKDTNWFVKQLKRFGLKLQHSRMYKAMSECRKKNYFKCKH
B3: Autophagy-related protein 39 (Saccharomyces cerevisiae), Q06159 (parent)
chain: B2 partner
partner: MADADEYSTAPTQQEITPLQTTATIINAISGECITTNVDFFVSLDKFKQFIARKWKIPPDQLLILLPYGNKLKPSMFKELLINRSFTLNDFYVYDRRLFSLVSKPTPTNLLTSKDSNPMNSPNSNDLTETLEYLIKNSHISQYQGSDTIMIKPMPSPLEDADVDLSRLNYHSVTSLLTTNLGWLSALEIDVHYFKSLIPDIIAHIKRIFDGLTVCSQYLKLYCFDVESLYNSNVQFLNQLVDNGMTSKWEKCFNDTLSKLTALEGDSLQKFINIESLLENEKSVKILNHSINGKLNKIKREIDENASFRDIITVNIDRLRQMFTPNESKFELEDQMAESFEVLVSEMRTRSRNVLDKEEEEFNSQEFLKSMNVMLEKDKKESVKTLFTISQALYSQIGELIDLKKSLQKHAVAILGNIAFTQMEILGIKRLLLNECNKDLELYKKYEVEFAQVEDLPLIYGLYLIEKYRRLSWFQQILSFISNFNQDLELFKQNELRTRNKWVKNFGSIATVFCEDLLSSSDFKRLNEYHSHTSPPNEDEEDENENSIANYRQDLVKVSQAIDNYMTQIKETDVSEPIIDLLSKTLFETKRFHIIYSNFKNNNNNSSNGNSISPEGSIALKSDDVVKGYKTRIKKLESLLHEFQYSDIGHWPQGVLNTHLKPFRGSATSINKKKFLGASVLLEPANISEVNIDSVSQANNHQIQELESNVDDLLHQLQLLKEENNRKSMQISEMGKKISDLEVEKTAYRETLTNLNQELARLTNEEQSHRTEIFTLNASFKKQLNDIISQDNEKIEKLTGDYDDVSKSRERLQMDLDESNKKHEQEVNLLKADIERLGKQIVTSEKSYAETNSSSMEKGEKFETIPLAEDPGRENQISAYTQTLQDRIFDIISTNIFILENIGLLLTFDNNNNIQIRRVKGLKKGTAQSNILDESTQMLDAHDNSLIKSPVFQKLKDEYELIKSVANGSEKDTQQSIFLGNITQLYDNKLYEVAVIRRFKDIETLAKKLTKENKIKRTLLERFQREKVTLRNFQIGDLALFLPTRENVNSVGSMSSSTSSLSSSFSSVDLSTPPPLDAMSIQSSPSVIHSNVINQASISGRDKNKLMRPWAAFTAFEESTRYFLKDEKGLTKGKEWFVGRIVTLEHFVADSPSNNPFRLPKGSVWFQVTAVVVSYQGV
B4: Autophagy-related protein 40 (Saccharomyces cerevisiae), Q99325 (parent)
chain: B1 partner
partner: B1 chain
B5: Autophagy-related protein 39 (Saccharomyces cerevisiae), Q06159 (parent)
chain: B2 partner
partner: B1 chain

Variants of: B1
Details: with atg40_yeast ATG40, Q99325

effect of a mutation on the interaction	Variant
disrupting interaction strength	P52A;R67A

Variants of: B2
Details: with atg39_yeast ATG39, Q06159

effect of a mutation on the interaction	Variant
disrupting interaction strength	P52A;R67A

Variants of: B2
Details: with atg39_yeast ATG39, Q06159
Remark: another data set of the same source

effect of a mutation on the interaction	Variant
decreasing interaction strength	P52A;R67A

Variants of: B3
Details: with atg11_yeast ATG11, Q12527

effect of a mutation on the interaction	Variant
disrupting interaction strength	D52A;V53A;L54A;S55A;N56A;T57A;S58A;S59A

Variants of: B4
Details: with atg8_yeast ATG8, P38182

effect of a mutation on the interaction	Variant
disrupting interaction strength	Y242A;M245A

Variants of: B5
Details: with atg8_yeast ATG8, P38182

effect of a mutation on the interaction	Variant
disrupting interaction strength	W8A;V11A
